From paper doi:10.1101/2020.06.02.131169 (bioRxiv, 2020) come the findings set out here.

Data set [1] addresses bifunctional TreS-Mak of Estrella lausannensis (trehalose synthase-maltokinase) (Estrella lausannensis). Kind of data set: SEC. Background: Size exclusion chromatography separates by hydrodynamic size, large species first.
The data set “SEC” deals with the molecule itself. Kind of data set: SEC.

In the case of “bifunctional TreS-Mak of Estrella lausannensis (trehalose synthase-maltokinase) (enzyme)”, in data set [1], the stoichiometry N (in general, a count of units in the complex or per binding partner) turned out to be 2.

B1: GlgE of Estrella lausannensis (maltosyl-1-phosphate transferase) (enzyme, UniProt A0A0H5DRC6 1-675, looked up)
chain: MSVSAAEKRQLLTQVKASGSMYTNTLHSIVIQNISPKPEPFGPAKRVLLEQVEVEADIFTDPHTKLEADLIVKAPGLRKTTRIPFHPLVNDRFKAVFVPDTPGTYSFFVEAWVNPAALWQEDLRKKQEARLDLTVDLQIGAALLVEVADLLPPEESVKLLQIAKKLREQKGAEAVAFDPEIARLGRLARPKSRQGVCSQEQEVFVTRKKALFSTWYELFPRSCSGTMRHGTFNDVVAKLPRISRMGFDVLYLPPIHPIGKTKRKGKNNALTALPDDPGSPWAVGSHEGGHDAIQRELGTLADFERLVKEAESLGIEIALDIALQCSPDHPYLKEHPEWFLKRPDGTYQYAENPPKKYEDIIPFHFTEDNKDTLFREILRIFLFWMKRGVRIFRVDNPHTKPFALWEYVIGEVRKVDSGVIFLAEAFTRPKIMHHLARIGFDQSYTYFTWRNTKWELTEYLTELTKTEARNYLRPNFFVNTPDILPESLQWGGRAAFLTRLILAATLSSSYGIYGPAFEQMLSEAVPGKEDYIDSEKYEIKPWDFEKKGTISETIEIVNRIRKENPALQATGNLEFYATDNDYLLAYGKQGPQGESLLIVVNLDHYHTQSGYVTLPLMHLGIQEKEPYLVDDLLSGERYIWEGERNYIQLSPHLVPAHIFRIRPKMLRENNFDYFI
On to B1, for which the “stoichiometry N” value in the data set “SEC” was found to be 2.
